Tests used:
[1] = target: T1, recombinant human LRRC33-proTGFβ1 complex (human, UniProt P01137 30-390; Q86YC3 19-650); assay: MSD-SET (solution equilibrium titration), % free antigen against Ab6 concentration
T1 construct: also called hLRRC33-proTGFβ1; hLRRC33
Method: (§1) MSD-SET assays were performed to measure affinities of the antibodies at equilibrium. Briefly, each test antibody was diluted 3-5 fold and samples were mixed with biotinylated antigen in a 48-well dish. The SET samples were equilibrated for 20-24 hours at room temperature. Meanwhile, a capture plate was coated with IgG (20 nM) and incubated overnight at 4° C. or 30 minutes at room temperature, followed by a blocking step with 5% BSA. After the capture plate was washed three times, SET samples were added and incubated for 150 seconds. The plate was washed once to remove unbound complexes. 250 ng/ml SA-Sulfotag was added then washed 3 times. 2× Read Buffer was added, and signals from the labeled bound complexes were read with the use of QuickPlex™ SQ 120 instrument.
(§2) As an example, MSD standard plates (MSD) were coated with a 20 nM solution of monoclonal antibody in PBS for 30 min at room temperature or overnight at 4° C. […] After 20-24 hours of equilibration, the antibody-coated plate was blocked with Blocking Buffer A (MSD) for 30 minutes at room temperature and washed with wash buffer (PBS, 0.1% BSA, 0.05% Tween-20) before adding the equilibrated antibody-antigen complexes to the plate for exactly 2.5 minutes. […] After washing with wash buffer, plates were read in MSD read buffer (MSD) using the MESO QuickPlex SQ 120 (MSD). […]

[2] = target: T2, recombinant human GARP-proTGFβ1 complex (human, UniProt P01137 30-390; Q14392 20-627); assay: as above
T2 construct: also called hGARP-proTGFβ1; hGARP
T2 sequence (P01137 30-390, chain 1 of 2): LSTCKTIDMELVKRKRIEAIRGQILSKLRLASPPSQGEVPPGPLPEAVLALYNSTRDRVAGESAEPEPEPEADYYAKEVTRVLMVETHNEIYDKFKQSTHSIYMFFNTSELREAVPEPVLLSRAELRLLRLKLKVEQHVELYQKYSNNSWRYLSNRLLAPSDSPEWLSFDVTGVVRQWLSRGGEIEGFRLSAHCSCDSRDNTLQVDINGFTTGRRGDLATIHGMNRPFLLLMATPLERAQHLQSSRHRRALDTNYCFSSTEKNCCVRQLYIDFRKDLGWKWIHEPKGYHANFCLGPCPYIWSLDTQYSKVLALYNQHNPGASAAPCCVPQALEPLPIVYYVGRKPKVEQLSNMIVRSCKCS
T2 sequence (Q14392 20-627, chain 2 of 2): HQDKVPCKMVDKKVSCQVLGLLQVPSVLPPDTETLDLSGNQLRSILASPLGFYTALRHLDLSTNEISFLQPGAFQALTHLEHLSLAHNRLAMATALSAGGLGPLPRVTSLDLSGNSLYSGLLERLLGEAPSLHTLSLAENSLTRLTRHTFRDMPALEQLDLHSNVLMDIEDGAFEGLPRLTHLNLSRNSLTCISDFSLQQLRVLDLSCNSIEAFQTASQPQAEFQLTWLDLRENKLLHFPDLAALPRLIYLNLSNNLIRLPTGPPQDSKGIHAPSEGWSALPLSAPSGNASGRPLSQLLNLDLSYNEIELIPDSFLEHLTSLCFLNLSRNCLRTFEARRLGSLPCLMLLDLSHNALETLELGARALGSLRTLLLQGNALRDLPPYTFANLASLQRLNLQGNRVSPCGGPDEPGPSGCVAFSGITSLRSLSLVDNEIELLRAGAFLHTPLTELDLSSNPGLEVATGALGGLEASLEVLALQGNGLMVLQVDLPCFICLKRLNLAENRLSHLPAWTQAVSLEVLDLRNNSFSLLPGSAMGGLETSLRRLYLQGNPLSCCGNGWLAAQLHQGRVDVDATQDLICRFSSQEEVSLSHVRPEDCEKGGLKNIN
Method: as §1, §2

LTBP:proTGFβ1 = LTBP:proTGFβ1 (human); assay: cell-based or functional assay

T1 sequence (P01137 30-390 limits assumed, chain 1 of 2): as the sequence (P01137 30-390, chain 1 of 2) above
T1 sequence (Q86YC3 other isoform, or with tags, fused parts or gaps limits assumed, chain 2 of 2): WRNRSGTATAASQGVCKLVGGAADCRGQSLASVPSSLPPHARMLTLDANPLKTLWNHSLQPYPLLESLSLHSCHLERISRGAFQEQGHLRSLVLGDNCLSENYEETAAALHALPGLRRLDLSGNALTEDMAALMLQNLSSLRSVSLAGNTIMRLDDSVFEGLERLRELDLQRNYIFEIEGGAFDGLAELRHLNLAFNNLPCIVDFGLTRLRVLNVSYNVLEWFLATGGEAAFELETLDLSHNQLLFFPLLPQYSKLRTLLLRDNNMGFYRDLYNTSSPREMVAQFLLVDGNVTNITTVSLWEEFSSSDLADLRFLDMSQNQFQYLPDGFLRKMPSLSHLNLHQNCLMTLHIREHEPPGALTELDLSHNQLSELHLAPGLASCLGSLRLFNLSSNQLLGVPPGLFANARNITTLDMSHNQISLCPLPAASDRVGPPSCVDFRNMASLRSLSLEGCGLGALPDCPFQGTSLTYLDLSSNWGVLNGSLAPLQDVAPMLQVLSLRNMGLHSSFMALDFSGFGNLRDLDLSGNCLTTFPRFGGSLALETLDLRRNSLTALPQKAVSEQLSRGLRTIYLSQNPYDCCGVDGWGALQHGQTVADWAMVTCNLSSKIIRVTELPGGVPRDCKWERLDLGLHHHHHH

B1: Ab6 (antibody, V domains shown)
VH: EVQLVESGGGLVQPGGSLRLSCTASGFTFSSFSMDWVRQAPGKGLEWVSYISPSADTIYYADSVKGRFTISRDNAKNTLYLQMNSLRAEDTAVYYCARGVLDYGDMLMPWGQGTLVTVSS
VL: DIQMTQSPSSLSASVGDRVTITCQASQDITNYLNWYQQKPGKAPKLLIYDASNLETGVPSRFSGSGSGTDFTFTISSLQPEDIATYYCQQADNHPPWTFGGGTKVEIKR
IC50 (read off the curve) [1]: ~0.06 nM
IC50 (read off the curve) [2]: ~0.03 nM
IC50 (read off the curve) (LTBP:proTGFβ1): ~1 nM

From patent US20210122814A1 (SCHOLAR ROCK, published 2021)
